Results on eight molecules are retold here after publication PMC5515408, “Sequence-specific DNA binding by MYC/MAX to low-affinity non-E-box motifs”.

For data set [1], the target named is T1, MAX:MAX (p21) (human, UniProt P61244-2 1-151). The experiment in a line: EMSA competition; EMSA: 10 ul, 0.5 pmol probe, 80 ng poly(dA-dT):(dA-dT), 375 ng/ul BSA, 15 mM Tris-HCl pH 7.9, 100 mM KCl, 15% glycerol, 0.15 mM EDTA, 0.075% NP-40, 7.5 mM 2-mer. The following applies: protein: recombinant; tags: 6xHis; chain copies: 2; label: 32P (Klenow fill-in with [alpha-32P]dGTP) as probe; annealed complementary oligos; probe Klenow-filled. For orientation: In EMSA bound probe runs differently from free probe, usually more slowly.

Data set [2] concerns the target T2, MYC (p64);MAX (p21), in MYC:MAX (human;human, UniProt P01106-1;P61244-2 1-439;1-151, |). The description is as above. As to conditions: protein: recombinant;recombinant; tags: 6xHis;6xHis; copies: 1;1; label: 32P (Klenow fill-in with [alpha-32P]dGTP) as probe; annealed complementary oligos; probe Klenow-filled.
Data set [3] concerns the target T1, MAX:MAX (p21). The experiment in a line: competition; labeled CME probe; EMSA: 10 ul, 0.5 pmol probe, 80 ng poly(dA-dT):(dA-dT), 375 ng/ul BSA, 15 mM Tris-HCl pH 7.9, 100 mM KCl, 15% glycerol, 0.15 mM EDTA, 0.075% NP-40, 7.5 mM 2-mer. The following applies: protein: recombinant; tags: 6xHis; chain copies: 2; annealed complementary oligos.
Data set [4] addresses T1, MAX:MAX (p21). Put plainly: EMSA; EMSA: 10 ul, 0.5 pmol probe, 80 ng poly(dA-dT):(dA-dT), 375 ng/ul BSA, 15 mM Tris-HCl pH 7.9, 100 mM KCl, 15% glycerol, 0.15 mM EDTA, 0.075% NP-40, 7.5 mM 2-mer. As to conditions: protein: recombinant; tags: 6xHis; chain copies: 2; label: 32P (Klenow fill-in with [alpha-32P]dGTP) as probe; annealed complementary oligos; probe Klenow-filled.

Data set [5] deals with T2, MYC (p64);MAX (p21), in MYC:MAX. The description is as above. As to conditions: protein: recombinant;recombinant; tags: 6xHis;6xHis; copies: 1;1; label: 32P (Klenow fill-in with [alpha-32P]dGTP) as probe; annealed complementary oligos; probe Klenow-filled.
Data set [6] has as its target T1, MAX:MAX (p21). The experiment in a line: competition; labeled CME probe; stronger than NE; EMSA: 10 ul, 0.5 pmol probe, 80 ng poly(dA-dT):(dA-dT), 375 ng/ul BSA, 15 mM Tris-HCl pH 7.9, 100 mM KCl, 15% glycerol, 0.15 mM EDTA, 0.075% NP-40, 7.5 mM 2-mer. As to conditions: protein: recombinant; tags: 6xHis; chain copies: 2; annealed complementary oligos.

T2 sequence (P01106 16-454, chain 1 of 2): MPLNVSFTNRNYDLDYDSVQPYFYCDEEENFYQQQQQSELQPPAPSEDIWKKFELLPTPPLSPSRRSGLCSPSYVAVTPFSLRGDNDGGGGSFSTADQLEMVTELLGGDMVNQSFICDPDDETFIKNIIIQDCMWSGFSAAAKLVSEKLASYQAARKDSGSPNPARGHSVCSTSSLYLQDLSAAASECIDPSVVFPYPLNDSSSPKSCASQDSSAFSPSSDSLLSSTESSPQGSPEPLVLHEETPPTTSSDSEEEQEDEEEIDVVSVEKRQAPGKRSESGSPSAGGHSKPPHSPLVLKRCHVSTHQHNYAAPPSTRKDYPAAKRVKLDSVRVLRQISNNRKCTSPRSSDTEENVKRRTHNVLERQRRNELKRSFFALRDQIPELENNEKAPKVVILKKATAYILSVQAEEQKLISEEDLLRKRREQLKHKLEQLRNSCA
T2 sequence (P61244 other isoform, or with tags, fused parts or gaps |, chain 2 of 2): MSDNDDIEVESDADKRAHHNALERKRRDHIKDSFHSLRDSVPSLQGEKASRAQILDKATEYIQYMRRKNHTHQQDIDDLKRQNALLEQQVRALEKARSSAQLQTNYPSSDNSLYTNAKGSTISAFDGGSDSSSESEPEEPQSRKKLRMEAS
T1 sequence (P61244 other isoform, or with tags, fused parts or gaps): as the sequence (P61244 other isoform, or with tags, fused parts or gaps |, chain 2 of 2) above

B1: NE (dsDNA)
DNA 1: CCGGCTGAAACGTTGTATTAATAG
DNA 2: CTATTAATACAACGTTTCAGCCGG
In the case of B1, the binding signal with MAX:MAX (p21) [1] was ~33 fold lower affinity than CME; in data set [2], ~20 fold lower affinity than CME.

B2: NE-V3 (dsDNA)
DNA 1: CCGGCTGATACGTAGTATTAATAG
DNA 2: CTATTAATACTACGTATCAGCCGG
As to B2, in the data set with MAX:MAX (p21) [3], the binding result is “no binding”.

B3: NE-V4 (dsDNA)
DNA 1: CCGGCTGAAAGCTTGTATTAATAG
DNA 2: CTATTAATACAAGCTTTCAGCCGG
Take B3: the binding result with MAX:MAX (p21) [3] is given as “no binding”.

B4: Ctrl (dsDNA)
DNA 1: CCGGCTGATTAGCAGTATTAATAG
DNA 2: CTATTAATACTGCTAATCAGCCGG
For the molecule B4, the binding result (in the data set with MAX:MAX (p21) [4]; in data set [5]) was “no binding” in each case.

B5: E-V1 (dsDNA)
DNA 1: CCGGCTGACACGTTGTATTAATAG
DNA 2: CTATTAATACAACGTGTCAGCCGG
Regarding B5, the binding result with MAX:MAX (p21) [6] is recorded as “binds”.

B6: NE-V1 (dsDNA)
DNA 1: CCGGCTGATACGTTGTATTAATAG
DNA 2: CTATTAATACAACGTATCAGCCGG
For the molecule B6, in the data set with MAX:MAX (p21) [3], the binding result is given as “no binding”.

B7: NE-V2 (dsDNA)
DNA 1: CCGGCTGAGACGTTGTATTAATAG
DNA 2: CTATTAATACAACGTCTCAGCCGG
B7: the binding result with MAX:MAX (p21) [3] is reported as “no binding”.

B8: CME (dsDNA)
DNA 1: CCGGCTGACACGTGGTATTAATAG
DNA 2: CTATTAATACCACGTGTCAGCCGG
With B8, the binding result (with MAX:MAX (p21) [4]; in data set [5]) was “binds” in each case.
